According to PMC10362054, “p53 restoration in small cell lung cancer identifies a latent cyclophilin-dependent necrosis mechanism” (Nature Communications, 2023):

Target: T1, Cyclophilin A (endogenous) (mouse (endogenous in mouse SCLC …, UniProt P17742 1-164))
T1 construct: cyclophilin A, encoded by Ppia, endogenous in cell lines derived from mouse SCLC tumors; also called CypA; PPIA; source: endogenous, mouse SCLC Type D (4711-18) and Type V (4716-10) cells, fixed cells
Assay: proximity ligation; Duolink PLA on fixed Type D (4711-18) and Type V (4716-10) mouse SCLC cells treated with 4-OHT for 48 h; endogenous proteins; antibodies to p53 and to cyclophilin A, D or E
Conditions: partners not purified

T1 sequence (P17742 whole entry): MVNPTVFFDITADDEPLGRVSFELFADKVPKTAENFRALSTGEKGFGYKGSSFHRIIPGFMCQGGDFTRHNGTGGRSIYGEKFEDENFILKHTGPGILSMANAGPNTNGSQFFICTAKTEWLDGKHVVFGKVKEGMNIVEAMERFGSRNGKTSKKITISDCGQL

B1: p53 (endogenous, restored Trp53 allele) (natural protein, UniProt P02340 1-390, looked up)
chain: MTAMEESQSDISLELPLSQETFSGLWKLLPPEDILPSPHCMDDLLLPQDVEEFFEGPSEALRVSGAPAAQDPVTETPGPVAPAPATPWPLSSFVPSQKTYQGNYGFHLGFLQSGTAKSVMCTYSPPLNKLFCQLAKTCPVQLWVSATPPAGSRVRAMAIYKKSQHMTEVVRRCPHHERCSDGDGLAPPQHLIRVEGNLYPEYLEDRQTFRHSVVVPYEPPEAGSEYTTIHYKYMCNSSCMGGMNRRPILTIITLEDSSGNLLGRDSFEVRVCACPGRDRRTEEENFRKKEVLCPELPPGSAKRALPTCTSASPPQKKKPLDGEYFTLKIRGRKRFEMFRELNEALELKDAHATEESGDSRAHSSYLKTKKGQSTSRHKKTMVKKVGPDSD
notes: p53 expressed from the restored endogenous Trp53 allele (p53 R state) in cell lines derived from mouse SCLC tumors; source: endogenous, mouse SCLC Type D (4711-18) and Type V (4716-10) cells after 4-OHT, fixed cells
In the case of B1, the “fold less PLA interaction in Type V cells than in Type D cells” value is reported as about 10 fold.
